{"source": "patent US20190218304A1", "about": "“POTENTIATING THE EFFECT OF ATP RELEASE” (INNATE PHARMA, priority 2017, published 2019)", "molecules": {"B1": {"name": "I-394: anti-CD39 antibody, VH SEQ ID NO: 3, VL SEQ ID NO: 4; heavy and light chains SEQ ID NOS: 37 and 38 (antibody)", "heavy": "EVQLQQSGPELVKPGASVKMSCKASGYTFTDYNMHWVKQSHGRTLEWIGYIVPLNGGSTFNQKFKGRATLTVNTSSRTAYMELRSLTSEDSAAYYCARGGTRFAYWGQGTLVTVSAASTKGPSVFPLAPSSKSTSGGTAALGCLVKDYFPEPVTVSWNSGALTSGVHTFPAVLQSSGLYSLSSVVTVPSSSLGTQTYICNVNHKPSNTKVDKRVEPKSCDKTHTCPPCPAPEAEGAPSVFLFPPKPKDTLMISRTPEVTCVVVDVSHEDPEVKFNWYVDGVEVHNAKTKPREEQYNSTYRVVSVLTVLHQDWLNGKEYKCKVSNKALPSSIEKTISKAKGQPREPQVYTLPPSREEMTKNQVSLTCLVKGFYPSDIAVEWESNGQPENNYKTTPPVLDSDGSFFLYSKLTVDKSRWQQGNVFSCSVMHEALHNHYTQKSLSLSPGK", "light": "DIVLTQSPASLAVSLGQRATISCRASESVDNFGVSFMYWFQQKPGQPPNLLIYGASNQGSGVPARFRGSGSGTDFSLNIHPMEADDTAMYFCQQTKEVPYTFGGGTKLEIKRTVAAPSVFIFPPSDEQLKSGTASVVCLLNNFYPREAKVQWKVDNALQSGNSQESVTEQDSKDSTYSLSSTLTLSKADYEKHKVYACEVTHQGLSSPVTKSFNRGEC", "modifications": "Chimeric homo sapiens mus musculus"}}, "key": {"[1]": {"target": "T1, Human CD39-L3, also known as NTPDase3 or ENTPD3 (Homo sapiens, UniProt O75355)", "T1 sequence (O75355 1-529)": "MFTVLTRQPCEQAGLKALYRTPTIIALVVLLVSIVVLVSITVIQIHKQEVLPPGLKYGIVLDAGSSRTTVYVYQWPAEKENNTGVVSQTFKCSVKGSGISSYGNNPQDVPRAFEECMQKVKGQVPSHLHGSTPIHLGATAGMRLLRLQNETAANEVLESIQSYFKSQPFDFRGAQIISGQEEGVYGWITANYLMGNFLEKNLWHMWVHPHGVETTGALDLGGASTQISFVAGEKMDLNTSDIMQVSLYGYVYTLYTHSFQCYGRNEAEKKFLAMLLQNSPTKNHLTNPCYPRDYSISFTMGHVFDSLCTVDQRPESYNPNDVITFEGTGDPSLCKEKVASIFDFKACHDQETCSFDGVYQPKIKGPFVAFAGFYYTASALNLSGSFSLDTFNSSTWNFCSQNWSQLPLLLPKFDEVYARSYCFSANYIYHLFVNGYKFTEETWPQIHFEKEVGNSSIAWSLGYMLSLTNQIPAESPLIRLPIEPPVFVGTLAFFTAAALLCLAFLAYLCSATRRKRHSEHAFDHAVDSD", "test": "ELISA titration on CD39-L3", "format": "binding", "conditions": "coated recombinant protein, OD=450", "procedure": "Wells were washed in TBS Tween 20, and further saturated 2H at RT in TBS Blocking buffer. Dose range concentration of primary antibody was incubated in TBS blocking buffer for 2 h at RT. Wells were washed in TBS Tween 20. […] Optical density was measured on Enspire™ at OD=450."}, "[2]": {"system": "MCA205 mouse tumor cells (sarcoma)", "test": "In vivo combination treatment, MCA205 tumors in human CD39 KI mice", "conditions": "second experimental series: oxaliplatin injected twice, one week apart, one day after I-394", "method": "1×10^6 MCA205 mouse tumor cells (sarcoma) were subcutaneously engrafted in the right flank of mice genetically modified to express human CD39 (CD39KI mice). […] Tumors were measured twice a week with a caliper (L: length and w: width) and tumor volume was calculated with the formula (L×w2)/2. Mice were sacrificed when tumor volume was above 1800 mm^3 or when tumors were highly necrosed. The human CD39 KI mice were engrafted with MCA205 tumor cells at day 0.\nIn a first experimental series, mice were treated at day 5 post tumor cell engraftment with either control (1 group) PBS, or oxaliplatin chemotherapy (2 groups). In parallel, one group of mice treated with oxaliplatin was injected twice a week with anti-CD39 antibody, with the anti-CD39 antibody treatment starting just one day before oxaliplatin treatment (at day 4)."}, "[3]": {"target": "T2, CD39 expressed by Ramos human lymphoma cells (Homo sapiens, UniProt P49961)", "T2 construct": "host or cells: Ramos human lymphoma cells", "T2 sequence (P49961 1-510)": "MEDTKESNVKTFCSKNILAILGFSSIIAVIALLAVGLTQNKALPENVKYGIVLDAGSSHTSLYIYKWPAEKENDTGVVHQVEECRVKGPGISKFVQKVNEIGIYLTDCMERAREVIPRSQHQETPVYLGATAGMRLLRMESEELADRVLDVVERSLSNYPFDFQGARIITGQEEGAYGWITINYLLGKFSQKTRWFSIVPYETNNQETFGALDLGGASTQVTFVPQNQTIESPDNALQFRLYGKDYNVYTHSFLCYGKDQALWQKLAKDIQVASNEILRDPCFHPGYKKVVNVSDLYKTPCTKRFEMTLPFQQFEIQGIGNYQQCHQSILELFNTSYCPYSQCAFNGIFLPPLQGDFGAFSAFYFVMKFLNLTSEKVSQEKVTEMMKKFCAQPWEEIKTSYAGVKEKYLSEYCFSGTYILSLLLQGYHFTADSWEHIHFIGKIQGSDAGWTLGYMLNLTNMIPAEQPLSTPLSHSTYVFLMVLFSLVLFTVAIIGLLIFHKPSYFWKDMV", "test": "Inhibition of the enzymatic activity of cellular CD39, Ramos cells (Cell Titer Glo)", "format": "cell-based", "procedure": "The inhibition of the CD39 enzymatic activity in CD39-expressing cells by antibodies was evaluated using Cell Titer Glo™ (Promega, reference G7571) that allows assessment of ATP hydrolysis through use of a reagent that generates a luminescent signal proportional to the amount of ATP present. The assay was thus designed to permit assessment of the inhibition of ATP hydrolyzed by CD39 in the cell culture supernatant. Briefly, 5×10^4 Ramos human lymphoma cells, 5×10^3 human CD39-, cynomolgus CD39- and mouse CD39-expressing CHO cells, were incubated 1 hour at 37° C. with anti-CD39 antibodies from 30 μg/ml to 5×10^−4 μg/ml. Cells were then incubated with 20 μM ATP for 1 additional hour at 37° C. Plates were centrifuged for 2 min at 400 g and 50 μl cell supernatant are transferred in a luminescence microplate (white wells). 50 μl CellTiter-Glo® Reagent (CTG) was added to the supernatant and emitted light was quantified after a 5 min incubation in the dark using a Enspire™ luminometer. Anti-CD39 antibody efficacy was determined by comparing emitted light in presence of antibody with ATP alone (maximal light emission) and ATP together with cells (minimal light emission)."}}}
{"molecule": "B1", "values": [{"measurement": "binding to CD39-L3 in ELISA", "setting": "[1]", "value": "not to any of the human isoforms"}, {"measurement": "effect on tumor growth / tumor volume and mice survival", "setting": "[2]", "value": "only marginal effect"}, {"measurement": "maximum inhibition achieved, cellular CD39", "setting": "[3]; Ramos cells, 20 μM ATP", "value": 81.6, "unit": "%"}, {"measurement": "blocking CD39 enzymatic activity in tumor (Ramos) cells", "setting": "[3]; result in words", "value": "highly potent at blocking CD39 enzymatic activity"}]}
